# Assay results taken from article PMC7367873, “Dissecting the sequence determinants for dephosphorylation by the catalytic subunits of phosphatases PP1 and PP2A” (Nature Communications, 2020).
# B1: CKAP4 (protein, UniProt Q07065 1-602, looked up)
# Cytoskeleton-associated …: MPSAKQRGSKGGHGAASPSEKGAHPSGGADDVAKKPPPAPQQPPPPPAPHPQQHPQQHPQNQAHGKGGHRGGGGGGGKSSSSSSASAAAAAAAASSSASCSRRLGRALNFLFYLALVAAAAFSGWCVHHVLEEVQQVRRSHQDFSRQREELGQGLQGVEQKVQSLQATFGTFESILRSSQHKQDLTEKAVKQGESEVSRISEVLQKLQNEILKDLSDGIHVVKDARERDFTSLENTVEERLTELTKSINDNIAIFTEVQKRSQKEINDMKAKVASLEESEGNKQDLKALKEAVKEIQTSAKSREWDMEALRSTLQTMESDIYTEVRELVSLKQEQQAFKEAADTERLALQALTEKLLRSEESVSRLPEEIRRLEEELRQLKSDSHGPKEDGGFRHSEAFEALQQKSQGLDSRLQHVEDGVLSMQVASARQTESLESLLSKSQEHEQRLAALQGRLEGLGSSEADQDGLASTVRSLGETQLVLYGDVEELKRSVGELPSTVESLQKVQEQVHTLLSQDQAQAARLPPQDFLDRLSSLDNLKASVSQVEADLKMLRTAVDSLVAYSVKIETNENNLESAKGLLDDLRNDLDRLFVKVEKIHEKV
# B2: SLC25A13 (protein, UniProt Q9UJS0 2-675, looked up)
# Electrogenic …: AAAKVALTKRADPAELRTIFLKYASIEKNGEFFMSPNDFVTRYLNIFGESQPNPKTVELLSGVVDQTKDGLISFQEFVAFESVLCAPDALFMVAFQLFDKAGKGEVTFEDVKQVFGQTTIHQHIPFNWDSEFVQLHFGKERKRHLTYAEFTQFLLEIQLEHAKQAFVQRDNARTGRVTAIDFRDIMVTIRPHVLTPFVEECLVAAAGGTTSHQVSFSYFNGFNSLLNNMELIRKIYSTLAGTRKDVEVTKEEFVLAAQKFGQVTPMEVDILFQLADLYEPRGRMTLADIERIAPLEEGTLPFNLAEAQRQKASGDSARPVLLQVAESAYRFGLGSVAGAVGATAVYPIDLVKTRMQNQRSTGSFVGELMYKNSFDCFKKVLRYEGFFGLYRGLLPQLLGVAPEKAIKLTVNDFVRDKFMHKDGSVPLAAEILAGGCAGGSQVIFTNPLEIVKIRLQVAGEITTGPRVSALSVVRDLGFFGIYKGAKACFLRDIPFSAIYFPCYAHVKASFANEDGQVSPGSLLLAGAIAGMPAASLVTPADVIKTRLQVAARAGQTTYSGVIDCFRKILREEGPKALWKGAGARVFRSSPQFGVTLLTYELLQRWFYIDFGGVKPMGSEPVPKSRINLPAPNPDHVGGYKLAVATFAGIENKFGLYLPLFKPSVSTSKAIGGGP
# B3: CCDC124 (protein, UniProt Q96CT7 1-223, looked up)
# Coiled-coil domain-containing …: MPKKFQGENTKSAAARARRAEAKAAADAKKQKELEDAYWKDDDKHVMRKEQRKEEKEKRRLDQLERKKETQRLLEEEDSKLKGGKAPRVATSSKVTRAQIEDTLRRDHQLREAPDTAEKAKSHLEVPLEENVNRRVLEEGSVEARTIEDAIAVLSVAEEAADRHPERRMRAAFTAFEEAQLPRLKQENPNMRLSQLKQLLKKEWLRSPDNPMNQRAVPFNAPK
# B4: ATAD3A (protein, UniProt Q9NVI7 2-586, looked up)
# ATPase family AAA …: SWLFGINKGPKGEGAGPPPPLPPAQPGAEGGGDRGLGDRPAPKDKWSNFDPTGLERAAKAARELEHSRYAKDALNLAQMQEQTLQLEQQSKLKEYEAAVEQLKSEQIRAQAEERRKTLSEETRQHQARAQYQDKLARQRYEDQLKQQQLLNEENLRKQEESVQKQEAMRRATVEREMELRHKNEMLRVEAEARARAKAERENADIIREQIRLKAAEHRQTVLESIRTAGTLFGEGFRAFVTDWDKVTATVAGLTLLAVGVYSAKNATLVAGRFIEARLGKPSLVRETSRITVLEALRHPIQVSRRLLSRPQDALEGVVLSPSLEARVRDIAIATRNTKKNRSLYRNILMYGPPGTGKTLFAKKLALHSGMDYAIMTGGDVAPMGREGVTAMHKLFDWANTSRRGLLLFVDEADAFLRKRATEKISEDLRATLNAFLYRTGQHSNKFMLVLASNQPEQFDWAINDRINEMVHFDLPGQEERERLVRMYFDKYVLKPATEGKQRLKLAQFDYGRKCSEVARLTEGMSGREIAQLAVSWQATAYASEDGVLTEAMMDTRVQDAVQQHQQKMCWLKAEGPGRGDEPSPS
# B5: DDOST (protein, UniProt P39656 43-456, looked up)
# Dolichyl-diphosphooligosacchar …: SGPRTLVLLDNLNVRETHSLFFRSLKDRGFELTFKTADDPSLSLIKYGEFLYDNLIIFSPSVEDFGGNINVETISAFIDGGGSVLVAASSDIGDPLRELGSECGIEFDEEKTAVIDHHNYDISDLGQHTLIVADTENLLKAPTIVGKSSLNPILFRGVGMVADPDNPLVLDILTGSSTSYSFFPDKPITQYPHAVGKNTLLIAGLQARNNARVIFSGSLDFFSDSFFNSAVQKAAPGSQRYSQTGNYELAVALSRWVFKEEGVLRVGPVSHHRVGETAPPNAYTVTDLVEYSIVIQQLSNGKWVPFDGDDIQLEFVRIDPFVRTFLKKKGGKYSVQFKLPDVYGVFQFKVDYNRLGYTHLYSSTQVSVRPLQHTQYERFIPSAYPYYASAFSMMLGLFIFSIVFLHMKEKEKSD
# B6: ABCF2 (protein, UniProt Q9UG63 1-623, looked up)
# ATP-binding cassette …: MPSDLAKKKAAKKKEAAKARQRPRKGHEENGDVVTEPQVAEKNEANGRETTEVDLLTKELEDFEMKKAAARAVTGVLASHPNSTDVHIINLSLTFHGQELLSDTKLELNSGRRYGLIGLNGIGKSMLLSAIGKREVPIPEHIDIYHLTREMPPSDKTPLHCVMEVDTERAMLEKEAERLAHEDAECEKLMELYERLEELDADKAEMRASRILHGLGFTPAMQRKKLKDFSGGWRMRVALARALFIRPFMLLLDEPTNHLDLDACVWLEEELKTFKRILVLVSHSQDFLNGVCTNIIHMHNKKLKYYTGNYDQYVKTRLELEENQMKRFHWEQDQIAHMKNYIARFGHGSAKLARQAQSKEKTLQKMMASGLTERVVSDKTLSFYFPPCGKIPPPVIMVQNVSFKYTKDGPCIYNNLEFGIDLDTRVALVGPNGAGKSTLLKLLTGELLPTDGMIRKHSHVKIGRYHQHLQEQLDLDLSPLEYMMKCYPEIKEKEEMRKIIGRYGLTGKQQVSPIRNLSDGQKCRVCLAWLAWQNPHMLFLDEPTNHLDIETIDALADAINEFEGGMMLVSHDFRLIQQVAQEIWVCEKQTITKWPGDILAYKEHLKSKLVDEEPQLTKRTHNV
# B7: DHX30 (protein, UniProt Q7L2E3 1-1194, looked up)
# ATP-dependent RNA helicase …: MFSLDSFRKDRAQHRQRQCKLPPPRLPPMCVNPTPGGTISRASRDLLKEFPQPKNLLNSVIGRALGISHAKDKLVYVHTNGPKKKKVTLHIKWPKSVEVEGYGSKKIDAERQAAAAACQLFKGWGLLGPRNELFDAAKYRVLADRFGSPADSWWRPEPTMPPTSWRQLNPESIRPGGPGGLSRSLGREEEEDEEEELEEGTIDVTDFLSMTQQDSHAPLRDSRGSSFEMTDDDSAIRALTQFPLPKNLLAKVIQIATSSSTAKNLMQFHTVGTKTKLSTLTLLWPCPMTFVAKGRRKAEAENKAAALACKKLKSLGLVDRNNEPLTHAMYNLASLRELGETQRRPCTIQVPEPILRKIETFLNHYPVESSWIAPELRLQSDDILPLGKDSGPLSDPITGKPYVPLLEAEEVRLSQSLLELWRRRGPVWQEAPQLPVDPHRDTILNAIEQHPVVVISGDTGCGKTTRIPQLLLERYVTEGRGARCNVIITQPRRISAVSVAQRVSHELGPSLRRNVGFQVRLESKPPSRGGALLFCTVGILLRKLQSNPSLEGVSHVIVDEVHERDVNTDFLLILLKGLQRLNPALRLVLMSATGDNERFSRYFGGCPVIKVPGFMYPVKEHYLEDILAKLGKHQYLHRHRHHESEDECALDLDLVTDLVLHIDARGEPGGILCFLPGWQEIKGVQQRLQEALGMHESKYLILPVHSNIPMMDQKAIFQQPPVGVRKIVLATNIAETSITINDIVHVVDSGLHKEERYDLKTKVSCLETVWVSRANVIQRRGRAGRCQSGFAYHLFPRSRLEKMVPFQVPEILRTPLENLVLQAKIHMPEKTAVEFLSKAVDSPNIKAVDEAVILLQEIGVLDQREYLTTLGQRLAHISTDPRLAKAIVLAAIFRCLHPLLVVVSCLTRDPFSSSLQNRAEVDKVKALLSHDSGSDHLAFVRAVAGWEEVLRWQDRSSRENYLEENLLYAPSLRFIHGLIKQFSENIYEAFLVGKPSDCTLASAQCNEYSEEEELVKGVLMAGLYPNLIQVRQGKVTRQGKFKPNSVTYRTKSGNILLHKSTINREATRLRSRWLTYFMAVKSNGSVFVRDSSQVHPLAVLLLTDGDVHIRDDGRRATISLSDSDLLRLEGDSRTVRLLKELRRALGRMVERSLRSELAALPPSVQEEHGQLLALLAELLRGPCGSFDVRKTADD
# B8: RFC1 (protein, UniProt P35251 1-1148, looked up)
# Replication factor C subunit 1: MDIRKFFGVIPSGKKLVSETVKKNEKTKSDEETLKAKKGIKEIKVNSSRKEDDFKQKQPSKKKRIIYDSDSESEETLQVKNAKKPPEKLPVSSKPGKISRQDPVTYISETDEEDDFMCKKAASKSKENGRSTNSHLGTSNMKKNEENTKTKNKPLSPIKLTPTSVLDYFGTGSVQRSNKKMVASKRKELSQNTDESGLNDEAIAKQLQLDEDAELERQLHEDEEFARTLAMLDEEPKTKKARKDTEAGETFSSVQANLSKAEKHKYPHKVKTAQVSDERKSYSPRKQSKYESSKESQQHSKSSADKIGEVSSPKASSKLAIMKRKEESSYKEIEPVASKRKENAIKLKGETKTPKKTKSSPAKKESVSPEDSEKKRTNYQAYRSYLNREGPKALGSKEIPKGAENCLEGLIFVITGVLESIERDEAKSLIERYGGKVTGNVSKKTNYLVMGRDSGQSKSDKAAALGTKIIDEDGLLNLIRTMPGKKSKYEIAVETEMKKESKLERTPQKNVQGKRKISPSKKESESKKSRPTSKRDSLAKTIKKETDVFWKSLDFKEQVAEETSGDSKARNLADDSSENKVENLLWVDKYKPTSLKTIIGQQGDQSCANKLLRWLRNWQKSSSEDKKHAAKFGKFSGKDDGSSFKAALLSGPPGVGKTTTASLVCQELGYSYVELNASDTRSKSSLKAIVAESLNNTSIKGFYSNGAASSVSTKHALIMDEVDGMAGNEDRGGIQELIGLIKHTKIPIICMCNDRNHPKIRSLVHYCFDLRFQRPRVEQIKGAMMSIAFKEGLKIPPPAMNEIILGANQDIRQVLHNLSMWCARSKALTYDQAKADSHRAKKDIKMGPFDVARKVFAAGEETAHMSLVDKSDLFFHDYSIAPLFVQENYIHVKPVAAGGDMKKHLMLLSRAADSICDGDLVDSQIRSKQNWSLLPAQAIYASVLPGELMRGYMTQFPTFPSWLGKHSSTGKHDRIVQDLALHMSLRTYSSKRTVNMDYLSLLRDALVQPLTSQGVDGVQDVVALMDTYYLMKEDFENIMEISSWGGKPSPFSKLDPKVKAAFTRAYNKEAHLTPYSLQAIKASRHSTSPSLDSEYNEELNEDDSQSDEKDQDAIETDAMIKKKTKSSKPSKPEKDKEPRKGKGKSSKK
# System: GFP-14-3-3β
# Assay: GFP-14-3-3β co-IP with LC-MS/MS, untreated GFP-14-3-3β versus GFP control (14-3-3 interactome)
# Type: binding, human
# Conditions: log2 difference; pairwise comparison untreated vs GFP, label-free quantification, 3 replicates each
row,Molecule,"Difference (log2), untreated vs GFP"
1,B1,-0.6332
2,B2,0.4406
3,B3,0.7429
4,B4,-0.296
5,B5,-0.4067
6,B6,-0.5576
7,B7,0.9044
8,B8,0.4473

# System: GFP-14-3-3β and its binding proteins
# Assay: GFP-14-3-3β co-IP with LC-MS/MS label-free quantification, untreated versus PP1c-treated
# Set-up: species or system human
# Conditions: log2 difference; pairwise comparison PP1 vs untreated, label-free quantification, 3 replicates each
row,Molecule,"Difference (log2), PP1 vs untreated"
1,B1,1.432
2,B2,1.412
3,B3,1.402
4,B4,1.381
5,B5,1.381
6,B6,1.378
7,B7,1.371
8,B8,1.349
